Data published in the supplement of paper PMC10899765.
± gives the standard deviation of the averaged measurements.

Assays:
Conditions in all cases: 20 nM; 72 h
MCF10A [1] = assay: one-nucleolus phenotype percent effect (relative to siNT 0% and siNOL11 100%); higher = more cells with one nucleolus (ribosome biogenesis inhibition)
Method: (§1)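 After 72 h, cells were fixed and stained with Hoechst and anti-fibrillarin, and nucleoli per nucleus were counted with CellProfiler. Values are plate-adjusted percent effect for the one-nucleolus and 5+ nucleoli phenotypes, normalised to siNT (0%) and to the positive controls siNOL11 or siKIF11 (100%), as the mean of biological triplicates. Percent viability is the nuclei count relative to siNT.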

MCF10A [2] = assay: percent viability (nuclei count relative to siNT); higher = more viable cells
Method: as §1

MCF10A [3] = assay: 5+ nucleoli phenotype percent effect (relative to siNT 0% and siKIF11 100%); higher = more cells with five or more nucleoli
Method: as §1

Sequence | one-nucleolus phenotype percent effect (MCF10A [1]) | percent viability (MCF10A [2]) | 5+ nucleoli phenotype percent effect (MCF10A [3])
AUUCCUAGAAAUUGUUCAUA [hsa-miR-384] | -8.73% | 107% | 23.8%
UUGCCACACUGCAACACCUUACA [hsa-miR-3064-3p] | 8.14% | 39.1% | -31.2%
AAUAAAGUUCAUGUAUGGCAA [hsa-miR-5590-3p] | -1.04% | 61.8% | -19%
CAAAGGCCACAUUCUCCUGUGCAC [hsa-miR-6768-3p] | 28% | 23.3% | -27.1%
AGGAAACAGGGACCCA [hsa-miR-4261] | 37.1% | 32.1% | -16.8%
UGUUCUCUUUGCCAAGGACAG [hsa-miR-2117] | -0.405% | 56.1% | 4.15%
UCCGUACAAACUCUGCUGUG [hsa-miR-3678-5p] | 39.4% | 64.4% | -49.2%
ACUGGGCAGGGCUGUGGUGAGU [hsa-miR-6860] | -5.92% | 50.7% | -5.42%
UGGGGAAGGCGUCAGUGUCGGG [hsa-miR-4725-3p] | 26% | 28.1% | -3%
CUGCAGACUCGACCUCCCAGGC [hsa-miR-1273h-3p] | 13.6% | 41.7% | -28.5%
CACAUGGCCGAAACAGAGAAGU [hsa-miR-942-3p] | -19.9% | 32.7% | -8.03%
AUCAUAGAGGAAAAUCCACGU [hsa-miR-376a-3p] | -19.3% | 52.2% | 51.3%
UGAGCCUCUCCUUCCCUCCAG [hsa-miR-6823-3p] | -2.85% | 31.2% | 12.9%
AUAGGCACCAAAAAGCAACAA [hsa-miR-4423-3p] | 0.708% | 12.9% | -11.3%
CUGGGAGAAGGCUGUUUACUCU [hsa-miR-30c-2-3p] | 45.5% | 21.9% | -29.4%
UAGAGGAAGCUGUGGAGAGA [hsa-miR-3125] | 13.8% | 23.3% | -14.5%
CAGUGCAAUAGUAUUGUCAAAGC [hsa-miR-301a-3p] | -17.2% | 126% | 43.8%
GUAAGCAGGGGCUCUGGGUGA [hsa-miR-6792-5p] | 56.4% | 30.2% | -36.8%
AGAAUUGCGUUUGGACAAUCAGU [hsa-miR-2964a-3p] | 34.8% | 28.5% | -29.2%
GCCUAUCACAUAUCUGCCUGU [hsa-miR-3927-5p] | -27.5% | 73.9% | 67.2%
UUGAAUUCUUGGCCUUAAGUGAU [hsa-miR-4452] | -19.4% | 42.1% | -9.56%
CCUAUUCUUGGUUACUUGCACG [hsa-miR-26a-1-3p] | 4.57% | 49.7% | -5.8%
CAAACCCCUGUCUACCCGCAG [hsa-miR-6771-3p] | 15.7% | 40.5% | -19.1%
CUGUGGGCUCAGCUCUGGG [hsa-miR-4265] | 42.3% | 27.1% | -38.1%
CUAUACGGCCUCCUAGCUUUCC [hsa-let-7e-3p] | -18.7% | 45% | 7.57%
AUUGGGGACAUUUUGCAUUCAU [hsa-miR-450a-3p] | 7.56 ± 4.4% | 31.6 ± 3.4% | -17.5 ± 0.61%
CAGCAGUCCCUCCCCCUG [hsa-miR-4274] | 6.47% | 34.1% | 7.99%
GUGCCAGCUGCAGUGGGGGAG [hsa-miR-1202] | -8.53% | 76.5% | 44.3%
CAUUAUUACUUUUGGUACGCG [hsa-miR-126-5p] | -14.9% | 88.9% | 12.5%
